Results as given in the supplement of paper PMC10567573.

B1: WDFY1 (parent)
chain: FWNIKQMWDTKTLGLRQHHCRKCG
B2: MYBL2 (parent)
chain: FSPSQFLNFWNKQDTLELESPSLT

Variants of: B1
Assay: protein stability index of a GFP-peptide fusion (GPS, HEK-293T) (PSI 1-6); higher = more stable
Details: c terminus: a fixed tail appended
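Note: lentivirally expressed fusions sorted by FACS into six bins by GFP to DsRed ratio, PSI derived from sequencing read proportions per bin multiplied by bin number.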

Protein stability index of substitutions, site by site:
Q6: C 2.29, E 2.37, T 2.04, F 2.36, H 2.22, N 2.22, S 2.01, Y 1.92, W 1.79, R 2.38, L 1.47, D 2.42, V 2.5, I 2.45, P 1.97, G 2.55, K 2.13, M 2.06, A 1.9
K5: A 1.97, V 1.69, M 1.87, H 2.03, W 2.11, T 1.97, C 1.79, S 1.72, D 2.27, N 2.28, F 2.33, G 1.96, Q 2.03, P 2.17, Y 1.36, L 1.07, I 2.15, E 2.43, R 1.82
I4: W 3.44, A 1.89, E 3.05, R 1.45, Q 3.12, L 1.74, D 2.56, M 2.35, F 1.54, T 2.14, V 2.52, N 2.13, H 2.56, Y 1.9, S 1.95, K 2, G 2.19, C 2.67, P 2.55
M7: A 1.89, C 2.06
N3: V 1.27, M 2.23, G 2.17, F 1.96, E 2.05, A 1.56, P 2.57, C 2.56, K 1.41, L 1.54, H 1.85, T 1.23, D 2.02, W 2.85, R 2.13, Q 1.96, S 1.61, Y 2.37, I 1.5
F1: G 2.3, C 2.65, S 2.46, P 2.29, A 2.11, E 2.61, Y 2.02, L 1.62, R 1.54, I 1.91, K 2.45, D 2.79, M 2.98, W 2.16, N 2.76, V 1.97, Q 2.31, T 2.28, H 2.36
W2: F 2.55, S 1.62, P 2.32, L 2.47, I 2.41, Y 2.74, H 1.43, M 2.32, R 2.82, T 1.67, C 1.14, D 2.19, G 1.47, K 2.29, N 2.46, E 2.53, A 2.24, Q 1.75, V 2.71

Variants of: B2
Assay: as above
Details: c terminus: a fixed tail appended

Protein stability index of substitutions, site by site:
S22: Y 2.61, N 3.17, K 3.1, F 3.27, H 2.56, W 3, T 2.82, P 1.89, C 4.69, V 2.95, I 2.72
L16: H 3.68, T 1.5, E 1.26, G 4.14, R 4.02, A 3.1, K 2.75, F 3.19, S 2.5, P 2.29, M 2.56, Q 3.33, C 2.68, D 3.85, V 2.19, I 2.58, Y 3.49
L18: T 3.04, R 2.95, D 2.79, N 1.98, V 3.28, K 2.98, H 1.77, S 1.84, Q 3.72, I 2.61, C 2.55, M 2.88, G 2.58, F 3.19, W 5.25, P 2.1, E 3.1, Y 3.16
T24: A 3.17, W 2.86, E 2.34, R 3.41, K 3.62
